The text below walks through data of US20200270360A1 (ANGIEX, published 2020).

The target of series [1] is T1, human TM4SF1 (transmembrane-4 L six family member-1) (human, UniProt P30408 1-202).
T1 construct: also called hTM4SF1
T1 sequence: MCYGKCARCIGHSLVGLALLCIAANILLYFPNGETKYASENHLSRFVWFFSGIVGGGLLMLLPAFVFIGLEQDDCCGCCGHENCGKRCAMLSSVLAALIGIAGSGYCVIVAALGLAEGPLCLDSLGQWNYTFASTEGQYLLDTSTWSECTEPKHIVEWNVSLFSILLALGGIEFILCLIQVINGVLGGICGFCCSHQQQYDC
The series can be described thus: flow cytometry (MFI) on HUVEC. In general terms: Flow cytometry measures light scatter and fluorescence of single cells or particles in a stream.

Series [2] addresses T1, human TM4SF1 (transmembrane-4 L six …). In words: flow cytometry on MDA-MB-468 and HLMEC cells.

Substitutions are numbered along the chain they refer to.

B1: humanized AGX-A01 (antibody, human IgG1, kappa, V domains shown)
VH: EVQLVESGGGLVKPGGSLRLSCAASGFTFSSFAMSWVRQAPGKGLEWVSTISSGSIYIYYTDGVKGRFTISRDNAKNSLYLQMNSLRAEDTAVYYCARRGIYYGYDGYAMDYWGQGTLVTVSS
VL: AIVLTQSPGTLSLSPGERATLSCRSSQSLVHSNGNTYLHWYMQKPGQAPRVLIYKVSNRFSGIPDRFSGSGSGTDFTLTISRLEPDDFAIYYCSQSTHIPLAFGQGTKLEIKR
notes: also called h AGX-A01 H1L10; h AGX-A01
With B1, it took 3.03 nM to reach a half-maximal effect in series [1] (EC50).

B2: anti-TM4SF1 antibody AGX-A01 (antibody, V domains shown)
VH: EVILVESGGGLVKPGGSLKLSCAASGFTFSSFAMSWVRQTPEKRLEWVATISSGSIYIYYTDGVKGRFTISRDNAKNTVHLQMSSLRSEDTAMYYCARRGIYYGYDGYAMDYWGQGTSVTVS
VL: AVVMTQTPLSLPVSLGDQASISCRSSQSLVHSNGNTYLHWYMQKPGQSPKVLIYKVSNRFSGVPDRFSGSGSGTDFTLKISRVEADDLGIYFCSQSTHIPLAFGAGTKLELK
notes: also called 8G4; AGX-01
As for B2, in series [2], the “concentration that saturates cell surface TM4SF1 binding” value was found to be 10 µg/mL.

B3: humanized mutated (hm) AGX-A07 H2L5 V1 (antibody, human IgG1, kappa, V domains shown)
VH: EVQLVQSGAEVKKPGASVKVSCKASGYTFTNYGVKWVRQAPGQGLEWMGWINTYTGNPIYAADFKGRVTMTTDTSTSTAYMELRSLRSDDTAVYYCVRFQYGDYRYFDVWGQGTLVTVSS
VL: EIVLTQSPATLSLSPGERATLSCRANSGISFINWYQQKPGQAPRLLIYGTANLASGIPARFSGSGSGRDFTLTISSLEPEDFAVYYCQQWSSNPLTFGGGTKVEIKR
notes: Full heavy and light chains
As to B3, in series [1], a half-maximal effect (EC50) was put at 1.58 nM.

B4: humanized mutated (hm) AGX-A07 H2L5 V4 (antibody, human IgG1, kappa, V domains shown)
VH: B3 VH
VL: B3 VL with N26Q, W90Y
notes: Full heavy and light chains; also called hm AGX-A07 V4
In series [1], B4 came in with an EC50 of 46.1 nM.

B5: humanized AGX-A07 H2L5 (antibody, human IgG1, kappa, V domains shown)
VH: B3 VH with E1Q, G44D, Y80F
VL: B3 VL with V3I, S62G
notes: Full heavy and light chains; also called h AGX-A07 H2L5; hAGX-A07 H2L5
B5 yielded an EC50 in series [1] of 1.53 nM.

B6: humanized mutated (hm) AGX-A07 H2L5 V2 (antibody, human IgG1, kappa, V domains shown)
VH: B3 VH
VL: B3 VL with N26Q
notes: Full heavy and light chains; also called AGX-A07 H2v1L5v2
B6 registered an EC50 in series [1] of 1.64 nM.

B7: humanized mutated (hm) AGX-A07 H2L5 V3 (antibody, human IgG1, kappa, V domains shown)
VH: B3 VH
VL: B3 VL with W90Y
notes: Full heavy and light chains
Molecule B7 yielded an EC50 in series [1] of 4.19 nM.

As a reminder, the EC50 is the concentration that produces a half-maximal response. Low readings indicate an effect from little substance, high ones a need for much substance.
